Measurements reported in patent publication US20200048342A1 (INSERM, published 2020).

Legend:
[1] = molecular target: T1, Biotinylated NOTCH3 657-848 (human, UniProt Q9UM47 657-848, biotinylated (site not stated)); assay: Octet RED (BLI), biotinylated NOTCH3 657-848 on streptavidin tips, 5E1 at 333 nM to 3.3 nM; human NOTCH3 (657-848), Octet
T1 construct: also called human NOTCH3 (Octet analysis)
T1 sequence: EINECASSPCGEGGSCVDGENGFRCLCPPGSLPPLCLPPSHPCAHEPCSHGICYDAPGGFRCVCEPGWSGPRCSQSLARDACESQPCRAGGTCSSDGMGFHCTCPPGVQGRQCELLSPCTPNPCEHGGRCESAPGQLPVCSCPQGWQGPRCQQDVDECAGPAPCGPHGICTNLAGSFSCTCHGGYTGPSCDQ
Description: (§1) FIGS. 1A-1B show 5E1 binding to human NOTCH3 using OCTET analysis. (A) Kinetic analysis was performed using the Octet RED technology from ForteBio according to the manufactures instruction. Biotinylated NOTCH3 657-848 was immobilized on streptavidin tips at a level of approximately 3 RU each. (B) Subsequent association and dissociation of 5E1 antibody was analyzed at concentrations in the range from 333 nM to 3.3 nM. Data analysis was subsequently done using the ForteBio Data Analysis 7.0 software (Example 3).
as §1, with “Kinetic” for “FIGS. 1A-1B show 5E1 binding to human NOTCH3 using OCTET analysis. (A) Kinetic”, “each.” for “each. (B)”, “3,3” for “3.3”, “(FIG. 1).” for “(Example 3).”

[2] = molecular target: vascular Notch3ECD deposits of TgPAC-Notch3R169C mice; assay: in vivo target engagement, co-immunolabelling with Alexa 488-conjugated 5E1 for total Notch3ECD deposits, 2 months old TgPAC-Notch3R169C mice

Kd [1]: 55 nM
percentage of target engagement [2]: 100%
B1: 5E1 monoclonal antibody (isotype IgG1) (antibody, V domains shown)
VH: EIQLQQSGTVLARPGASVKMSCKASGYTFTSYWMHWVKQRPGQGLEWIGAIYPGNGDTSYNRKFNGKAKLTAVTSTSTAYMEFSSLTNEDSAVYFCTRDYGSSYDYVMDYWGQGTSVTVSS
VL: DIQMTQSPSSLSASLGERVSLTCRASQDIGSSLNWLQQEPDGTIKRLIYATSSLDSGVPKRFSGSRSGSDYSLTISRLESEDFVDYYCLQYISSPLTFGAGTKLELK
notes: Murine monoclonal IgG1 from a hybridoma; also called 5E1 antibody; 5E1 anti-Notch3
